Reference: PMC8397897

Target: DENV capsid protein (DENVC) (Dengue virus 2 strain 16681, UniProt O09234 1-100)
Test: nephelometry (condensate formation); NaCl < 150 mM; diminished above; nonlabeled 25 mer
Details: protein: recombinant; chain copies: 2

GGACAGGAAUUAAUAGUAGCUGUCC (ssDNA, printed with U although named ssDNA; chemistry ambiguous) [ssDNASel25 (Sel25 DNA, 25 mer)]: binds.
